Results taken from patent publication US20150284471A1 (Amgen, published 2015).
Positions count from the first letter of the chain named. Names may count otherwise. Where two headings read alike, the source gives them in different places.

T1: full-length wild type recombinant human LCAT (human, UniProt P04180 25-440)
T1 construct: also called huLCAT; hLCAT
T1 sequence: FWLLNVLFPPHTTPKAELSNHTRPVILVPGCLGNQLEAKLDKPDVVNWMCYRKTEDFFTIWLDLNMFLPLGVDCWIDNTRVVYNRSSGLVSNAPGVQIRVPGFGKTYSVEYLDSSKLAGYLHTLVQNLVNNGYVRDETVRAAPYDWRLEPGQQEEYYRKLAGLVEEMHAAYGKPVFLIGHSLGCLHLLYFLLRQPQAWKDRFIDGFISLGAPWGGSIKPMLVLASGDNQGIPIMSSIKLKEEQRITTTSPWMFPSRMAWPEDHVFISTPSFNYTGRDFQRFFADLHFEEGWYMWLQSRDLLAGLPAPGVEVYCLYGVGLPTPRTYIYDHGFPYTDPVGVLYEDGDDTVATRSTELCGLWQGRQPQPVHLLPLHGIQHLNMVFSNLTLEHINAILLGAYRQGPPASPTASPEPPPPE

T2: full-length wild type recombinant human LCAT protein that carries a His and Flag tag at the C-terminus (human, UniProt P04180 25-440)
T2 sequence: T1 sequence

T3: full-length wild type recombinant cynomolgus LCAT (cynomolgus monkey, UniProt Q08758 25-440 (Papio anubis entry))
T3 construct: also called cyno LCAT
T3 chain: T1 sequence with R158H, G338D, H373R, L385Q

B1: 18E5 (antibody, human IgG2, kappa, V domains shown)
VH: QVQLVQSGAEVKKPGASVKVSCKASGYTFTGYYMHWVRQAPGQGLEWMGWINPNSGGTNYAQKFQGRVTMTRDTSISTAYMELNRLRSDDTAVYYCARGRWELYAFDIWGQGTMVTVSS
VL: EIVLTQSPGTLSLSPGERATLSCRASQSVSGSYLTWYQQKPGQAPRLLIYGASSRATGIPDRFSGSGSGTDFTLTISRLEPEDFAMYYCQQYGGSPPFTFGPGTKVDIKR
B2: 27C3 (antibody, human IgG2, lambda, V domains shown)
VH: QVQLQESGPGLVKPSQTLSLTCTVSGASISSGGYNWSWIRQHPGKGLEWIGYIYYSGSTYYNPSLKSRVTISVDTSKNQFSLKLSSVTAADTAVYYCARERGYCSSTSCSRVMDVWGQGTTVTVSS
VL: SSELTQDPAVSVALGQTVRITCQGDSLRSYYASWYQQKPGQAPVLVIYGKNNRPSGIPDRFSGSSSGNTASLTITGAQAEDEADYYCNSRDNIGNHQVFGGGTKLTVLG
notes: Incompletely N-glycosylated at Asn40 (AHo) of CDRH1
B3: 27C3(S42A, S131T, V135I, M136I/I112V) (antibody, human IgG2, lambda, V domains shown)
VH: B2 VH with S37A, S108T, V112I, M113I
VL: B2 VL with I93V
notes: IgG2 lambda; The mutations are already in the entries
B4: 27C3(S42A, S133T, M136I/I112V) (antibody, human IgG2, lambda, V domains shown)
VH: B2 VH with S37A, S110T, M113I
VL: B2 VL with I93V
notes: as for B3
B5: 27C3(S42A, S133T, M136I/N107G, I112V) (antibody, human IgG2, lambda, V domains shown)
VH: B2 VH with S37A, S110T, M113I
VL: B2 VL with N88G, I93V
notes: as for B3
B6: 27C3(S42A, S131T, M136I/I112V) (antibody, human IgG2, lambda, V domains shown)
VH: B2 VH with S37A, S108T, M113I
VL: B2 VL with I93V
notes: as for B3
B7: 27C3(S42A, S131T, M136I/N107G, I112V) (antibody, human IgG2, lambda, V domains shown)
VH: B2 VH with S37A, S108T, M113I
VL: B2 VL with N88G, I93V
notes: as for B3
B8: 27C3(S42A, S131T, V135I, M136I/N107G, I112V) (antibody, human IgG2, lambda, V domains shown)
VH: B2 VH with S37A, S108T, V112I, M113I
VL: B2 VL with N88G, I93V
notes: as for B3
B9: 27C3(S42A, S131T, M136I/N107G) (antibody, human IgG2, lambda, V domains shown)
VH: B2 VH with S37A, S108T, M113I
VL: B2 VL with N88G
notes: as for B3
B10: 27C3(S42A, M136I/N107G, I112V) (antibody, human IgG2, lambda, V domains shown)
VH: B2 VH with S37A, M113I
VL: B2 VL with N88G, I93V
notes: as for B3
B11: 27C3(S42A, S131T, V135I, M136I/N107G) (antibody, human IgG2, lambda, V domains shown)
VH: B2 VH with S37A, S108T, V112I, M113I
VL: B2 VL with N88G
notes: as for B3
B12: 27C3(S42A, S133T, M136I/N107G) (antibody, human IgG2, lambda, V domains shown)
VH: B2 VH with S37A, S110T, M113I
VL: B2 VL with N88G
notes: as for B3
B13: 25B7 (antibody, V domains shown)
VH: EVQLLESGGGLVQPGGSLRLSCAASGFTFRSYAMNWVRQAPGKGLEWVSTISGSGGSTHYADSVKGRFTISRDNSKNTLYLQLSSLRAEDTAVYYCAKGIAAADYYYYYGMDVWGQGTTVTVSS
VL: SYEVTQPPSVSVSPGQTASITCSGDKLGDKNACWYQQRPGQSPVLVIYQNSKRPSGIPERFSGSNSGNTATLTISGTQAMDEADYYCQAWDSSTVFGGGTRLEVLG
notes: The heavy chain entry ends after CH1 with a tag remnant

Columns and labels:
[1] = molecular target: T1, full-length wild type recombinant human …; assay: BIAcore 3000 SPR, antibody captured on goat anti-human IgG, LCAT as analyte, 1:1 fit
Description: (§1) Biosensor analysis was conducted at 25° C. in a HBS-EP buffer system (10 mM HEPES pH 7.4, 150 mM NaCl, 3 mM EDTA, 0.005% Surfactant P20) using a Biacore 3000 optical biosensor equipped with a CMS sensor chip. All reagents were kept at 4° C. prior to injection.
(§2) Goat anti-human IgG (30 mg/mL) (abcam) was immobilized (10000 RU) over flow cells 1-4 via standard amine coupling and followed by ethanolamine blocking. Each antibody (150 ng/mL) was captured (−100 RU) on a separate flow cell and analyzed simultaneously in sets of three. Flow cell 1 was used as the reference flow cell.
(§3) The data were fit to a 1:1 binding model (global Rmax) via Scrubber2 software. In some cases the highest concentrations were omitted to provide a better fit to the 1:1 binding model.

[2] = molecular target: T2, full-length wild type recombinant human …; assay: cell-based or functional assay
[3] = molecular target: T3, full-length wild type recombinant …; assay: BIAcore 3000 SPR, antibody captured on goat anti-human IgG, LCAT as analyte, 1:1 fit
Description: as §1, §2, §3

[4] = molecular target: T1, full-length wild type recombinant human …; assay: Binding Affinity (nM), Table 10; method not restated (BIAcore of Example 3 presumed)
[5] = molecular target: T3, full-length wild type recombinant …; assay: as above
[6] = molecular target: T1, full-length wild type recombinant human …; assay: cell-based or functional assay
[7] = molecular target: T1, full-length wild type recombinant human …; assay: cell-based or functional assay; remark: listed apart in the source
[8] = molecular target: T1, full-length wild type recombinant human …; assay: Binding Affinity (nM), Table 12; method not restated (BIAcore of Example 3 presumed)
[9] = molecular target: T3, full-length wild type recombinant …; assay: as above
[10] = molecular target: T1, full-length wild type recombinant human …; assay: cell-based or functional assay; remark: listed apart in the source
[11] = molecular target: T3, full-length wild type recombinant …; assay: BIAcore 3000 SPR, antibody captured on goat anti-human IgG, LCAT as analyte; cyno LCAT
Description: as §1, §2, §3

Binder | Kd [8] [nM] | Kd [9] [nM] | Activity [10] [%] | further results
B1 | – | – | – | Kd [1]: 1.01 nM; LCAT Activity (fold the vehicle control activity) [2]: 2.5 fold
B2 | – | – | – | Kd [1]: 1.15 nM; Kd [3]: 128 nM; Kd [4]: 1.15 nM; Kd [5]: 128 nM; EC50 (read off the curve) [6]: ~4 mgAb/mL Plasma; Activity [7]: 100%
B3 | 3 | 198 | 69 | –
B4 | 0.3 | 88 | 46 | –
B5 | 0.5 | 8 | 83 | –
B6 | 3 | 198 | 65 | –
B7 | 1.3 | 181 | 89 | –
B8 | 34 | 88 | 70 | –
B9 | 2.8 | 226 | 65 | –
B10 | 1.2 | 190 | 70 | –
B11 | 2.8 | 226 | 70 | –
B12 | 0.4 | 62 | 73 | –
B13 | – | – | – | Kd [1]: 2.24 nM; Kd [3]: 1.02 nM; Kd [11]: 1.2 nM
